For this assay, the target named is CRISPR-Lon protease (Sulfurihydrogenibium sp. YO3AOP1). Nature of the assay: SEC-MALS.

These results are taken from doi:10.1101/2021.12.06.471393.

Substance CRISPR-T A171E (natural protein) had a stoichiometry N (CRISPR-T variant per CRISPR-Lon) of 1. Still for that read-out and setting: as for CRISPR-T A181E (natural protein), the figure is 1; as for CRISPR-T A194E (natural protein), 1. In turn, CRISPR-T protein (natural protein) came in with a stoichiometry N (CRISPR-T per CRISPR-Lon) of 1.
